Test results taken from EP0554446B1.

Tests used:
[1] = biological target: HIV-1 MN gp120 (HIV-1 MN) (UniProt P05877); test: ELISA of hybridoma supernatant on membranes of MN-infected against uninfected H9 cells
[2] = biological target: HIV-1 MN gp120 (HIV-1 MN) (UniProt P05877); test: RIA of hybridoma supernatant on live HIV-1MN-infected against uninfected H9 cells, 125I rabbit anti-mouse IgG
[3] = biological target: HIV-1 MN gp120 (HIV-1 MN) (UniProt P05877); test: cell-based or functional assay
[4] = biological target: HIV-1 RF gp120 (HIV-1 RF) (UniProt P04579); test: cell-based or functional assay
UniProt P04579, sequence (P04579 32-865): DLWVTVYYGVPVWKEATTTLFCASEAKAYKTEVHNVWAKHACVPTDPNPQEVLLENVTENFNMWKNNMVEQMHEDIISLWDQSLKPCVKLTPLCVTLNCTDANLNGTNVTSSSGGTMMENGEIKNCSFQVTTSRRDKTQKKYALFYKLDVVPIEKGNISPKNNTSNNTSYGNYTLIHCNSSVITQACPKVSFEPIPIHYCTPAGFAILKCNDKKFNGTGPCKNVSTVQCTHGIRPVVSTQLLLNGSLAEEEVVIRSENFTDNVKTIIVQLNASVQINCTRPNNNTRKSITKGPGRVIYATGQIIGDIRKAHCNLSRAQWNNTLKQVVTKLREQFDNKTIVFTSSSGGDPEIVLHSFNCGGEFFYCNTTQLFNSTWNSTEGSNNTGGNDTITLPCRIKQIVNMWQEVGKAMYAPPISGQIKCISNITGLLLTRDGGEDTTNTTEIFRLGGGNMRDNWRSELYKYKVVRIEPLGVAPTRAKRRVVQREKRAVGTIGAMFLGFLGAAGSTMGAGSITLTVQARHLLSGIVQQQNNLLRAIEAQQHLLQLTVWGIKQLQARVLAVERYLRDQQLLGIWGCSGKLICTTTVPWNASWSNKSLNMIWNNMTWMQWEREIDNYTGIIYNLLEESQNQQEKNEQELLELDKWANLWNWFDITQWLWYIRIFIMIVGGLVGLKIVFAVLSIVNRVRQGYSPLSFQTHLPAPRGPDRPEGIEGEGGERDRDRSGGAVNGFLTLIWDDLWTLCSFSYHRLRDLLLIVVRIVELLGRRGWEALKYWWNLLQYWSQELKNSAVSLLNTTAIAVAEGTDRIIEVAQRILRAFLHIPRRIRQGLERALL

[5] = biological target: HIV-1 IIIB gp120 (HIV-1 IIIB) (UniProt P03375); test: cell-based or functional assay

UniProt P05877, sequence (P05877 32-856): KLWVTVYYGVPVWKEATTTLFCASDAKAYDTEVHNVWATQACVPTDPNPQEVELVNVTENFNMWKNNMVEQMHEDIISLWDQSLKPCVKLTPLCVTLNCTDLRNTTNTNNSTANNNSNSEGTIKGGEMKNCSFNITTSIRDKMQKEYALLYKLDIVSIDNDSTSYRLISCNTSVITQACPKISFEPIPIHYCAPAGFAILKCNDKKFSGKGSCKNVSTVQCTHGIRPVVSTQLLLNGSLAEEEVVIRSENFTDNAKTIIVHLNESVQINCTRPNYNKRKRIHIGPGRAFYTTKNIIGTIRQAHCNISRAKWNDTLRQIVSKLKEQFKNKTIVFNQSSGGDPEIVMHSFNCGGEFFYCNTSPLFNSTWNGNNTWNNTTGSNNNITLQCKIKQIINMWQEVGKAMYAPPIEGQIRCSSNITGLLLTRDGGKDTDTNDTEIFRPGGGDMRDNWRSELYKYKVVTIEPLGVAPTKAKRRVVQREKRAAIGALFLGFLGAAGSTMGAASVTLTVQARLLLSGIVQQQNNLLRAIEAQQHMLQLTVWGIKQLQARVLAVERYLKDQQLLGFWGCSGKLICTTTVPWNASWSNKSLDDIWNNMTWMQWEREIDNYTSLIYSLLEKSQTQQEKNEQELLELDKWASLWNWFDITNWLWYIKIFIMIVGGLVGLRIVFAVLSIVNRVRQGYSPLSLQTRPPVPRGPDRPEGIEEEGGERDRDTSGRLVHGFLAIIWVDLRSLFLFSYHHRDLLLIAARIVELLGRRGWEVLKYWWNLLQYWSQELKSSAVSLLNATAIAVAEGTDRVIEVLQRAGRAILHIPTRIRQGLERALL

Substance monoclonal antibody NM-01 has an ELISA ratio, infected cell membranes to uninfected cell membranes (Run 1) [1] of 5.76, an RIA Ratio cpm inf/cpm uninf [2] of 9.81 and an ID50, live MN virus, MT-2 assay [3] of 2 µg/mL. For the same substance, the ID50, live MN virus, reverse transcriptase assay [3] was less than 1 µg/mL, the ID50, syncytium formation by MN-infected H9 cells with C8166 cells [3] was 2 µg/mL and the percent inhibition of syncytium formation by MN-infected cells at 25 µg antibody [3] was 85%. For the same substance, the ID50, live RF virus, reverse transcriptase assay [4] was 0.05 µg/mL, the ID50, syncytium formation by RF-infected cells [4] was 4 µg/mL and the percent inhibition of syncytium formation by RF-infected cells at 25 µg antibody [4] was 59%. The ID50, live IIIB virus, MT-2 assay [5] was 0.1 µg/mL, the ID50, live IIIB virus, reverse transcriptase assay [5] was 0.1 µg/mL and the ID50, syncytium formation by IIIB-infected H9 cells with C8166 cells [5] was 3 µg/mL. For the same substance, the percent inhibition of syncytium formation by IIIB-infected cells at 25 µg antibody [5] was 85%.
